According to patent US20230018888A1:
Residue numbers refer to the chain shown, from its start.

B1: anti-ADGRE2 scFv E (scFv, part only; not given: VH-VL linker, V domains shown, not shown: another chain or arm of the molecule; small tags and cut ends)
VH: QVQLQQSGAEVKKPGASVKVSCKASGYTFTNYWMQWVRQAPGQGLEWIGAVYPGDGDTRHTQKFKGRVTMTADKSTSTVYMELSSLRSEDTAVYYCARGFTAYGMDYWGQGTLVTVSS
VL: QIVLTQSPATLSLSPGERATLTCSASSSVSYMHWYQQKPGLSPKRWIYDTSKLASGVPDRFSGSGSGTDYTFTIRRLEPEDFATYYCQQWSSNPLTFGQGTKVEIK
B2: anti-ADGRE2 scFv M (scFv, part only; not given: VH-VL linker, V domains shown, not shown: another chain or arm of the molecule; small tags and cut ends)
VH: B1 VH with V20L, V37I, H60Y, K65Q, V68A, M70L, K74T, V79A, L83V, L113T
VL: EIVLTQSPATLSASPGERVTMSCSASSSVSYMHWYQQKPGLAPRRWIYDTSKLASGVPDRFSGSGSGTDYTFTISRMEPEDFATYYCQQWSSNPLTFGGGTKLEIK

Biological target: Adhesion G Protein-coupled Receptor E2 (ADGRE2), overexpressed on murine lymphoma EL4 cells (human) (UniProt Q9UHX3)
Test: flow cytometry, scFv titrated on EL4 cells overexpressing ADGRE2

Chain of UniProt Q9UHX3 (Q9UHX3 24-823): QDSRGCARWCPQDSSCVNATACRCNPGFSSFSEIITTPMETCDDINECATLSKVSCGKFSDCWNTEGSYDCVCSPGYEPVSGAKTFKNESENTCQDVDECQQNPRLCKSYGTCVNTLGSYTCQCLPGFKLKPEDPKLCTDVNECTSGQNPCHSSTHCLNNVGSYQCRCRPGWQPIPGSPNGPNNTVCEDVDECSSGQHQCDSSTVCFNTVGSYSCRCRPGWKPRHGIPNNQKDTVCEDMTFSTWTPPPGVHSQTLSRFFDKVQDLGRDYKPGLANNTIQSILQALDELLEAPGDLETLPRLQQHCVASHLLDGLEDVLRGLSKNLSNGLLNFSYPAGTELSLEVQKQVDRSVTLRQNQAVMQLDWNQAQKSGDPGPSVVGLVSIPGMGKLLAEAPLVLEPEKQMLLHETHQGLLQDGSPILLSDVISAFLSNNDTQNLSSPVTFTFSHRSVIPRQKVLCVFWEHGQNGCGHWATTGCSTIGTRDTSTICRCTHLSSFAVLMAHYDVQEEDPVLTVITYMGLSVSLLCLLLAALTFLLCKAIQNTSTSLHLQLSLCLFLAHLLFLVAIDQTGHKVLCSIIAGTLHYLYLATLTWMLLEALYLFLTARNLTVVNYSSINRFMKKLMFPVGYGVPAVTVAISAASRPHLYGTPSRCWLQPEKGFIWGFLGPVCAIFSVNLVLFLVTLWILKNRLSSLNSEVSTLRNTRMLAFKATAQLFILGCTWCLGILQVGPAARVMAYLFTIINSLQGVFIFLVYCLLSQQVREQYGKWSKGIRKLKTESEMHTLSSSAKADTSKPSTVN

| Binder | EC50 [nM] |
| --- | --- |
| B1 | 10.6 |
| B2 | 16.4 |
